Experimental data as given in US20050186659A1 (published 2005).

Target: the molecule itself
Test: analytical ultracentrifugation (sedimentation velocity) in buffer with 0.4-0.6 M GuHCl; self-association of the enzyme
Experimental: Analytical ultracentrifugation. Velocity sedimentation experiments were performed using an XL-A analytical ultracentrifuge (Beckman Instruments, Palo Alto, Calif.) with an An60-Ti rotor. 11β-HSD1 in 50 mM Tris-HCl, pH 8.0: 1 mM TCEP and increasing concentrations of GuHCl (0-2.0 M) was centrifuged at 40,000 rpm. Solutions containing the same components except the protein were used as references. Scans were collected every 5 min at 280 nm absorption wavelength and the radial distance of the sedimenting boundary r was determined. The sedimentation coefficient was calculated by the gradient of the plot of ln(r) vs ω²t, where ω was the angular velocity and t was the time.
The association state of 11β-HSD1 was investigated by analytical ultracentrifugation. […] When incubated in buffer containing 0.4 M GuHCl, the guinea pig enzyme appeared to be constituted by two major populations (FIG. 5B). This behavior was even more pronounced at 0.6 M GuHCl (FIG. 5C). A molecular weight of approximately 60 kDa can be derived from the sedimentation coefficient of the larger peak, corresponding to a dimeric 11β-HSD1 population, while the second peak may originate from a smaller portion of tetrameric enzyme.

B1: recombinant guinea pig 11β-hydroxysteroid dehydrogenase type 1 (11β-HSD1), catalytic domain with His6 tag (enzyme)
chain: MGSSHHHHHHSSGLVPRGSHMNEKFRPEMLQGKKVIVTGASKGIGREIAYHLAKMGAHVVVTARSKEALQKVVARCLELGAASAHYIAGSMEDMTFAEEFVAEAGNLMGGLDMLILNHVLYNRLTFFHGEIDNVRKSMEVNFHSFVVLSVAAMPMLMQSQGSIAVVSSVAGKITYPLIAPYSASKFALDGFFSTLRSEFLVNKVNVSITLCILGLIDTETAIKATSGIYLGPASPKEECALEIIKGTALRQDEMYYVGSRWVPYLLGNPGRKIMEFLSAAEYNWDNVLSNEKLYGRWA
notes: also called guinea pig 11β-HSD1; guinea pig enzyme
- binding result: binds
